From patent publication US20250043302A1, “MUTATED HYDROXYPHENYLPYRUVATE DIOXYGENASE POLYPEPTIDE, AND CODING GENE AND USE THEREOF” (BEIJING DABEINONG BIOTECHNOLOGY CO., LTD., priority 2021, published 2025)

Assays:
Format in all cases: in vivo
[1] = test system: Arabidopsis thaliana T1 plants; experiment: Topramezone tolerance of transgenic Arabidopsis thaliana T1 plants (spray, bleached leaf area grade, damage score); details: 7 DAT, Table 4; for Classification and statistics of the grade of pesticide damage: Grade 0 / Classification and statistics of the grade of pesticide damage: Grade 1 / Classification and statistics of the grade of pesticide damage: Grade 2 / Classification and statistics of the grade of pesticide damage: Grade 3: number of plants; for Scores: pesticide damage score 0-100
Method in brief: (§1)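 Damage graded 0–3 from the proportion of bleached leaf area 7 days after spraying. Plants were glufosinate-selected T1 lines, 18 days after sowing, plus vector and wild-type controls. Rates: mesotrione 52.5–420, isoxaflutole 35–280, topramezone 25–200 g ai/ha, with water (0×).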

[2] = test system: Arabidopsis thaliana T1 plants; experiment: Mesotrione tolerance of transgenic Arabidopsis thaliana T1 plants (spray, bleached leaf area grade, damage score); parameters: Scores: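 damage score 0-100 computed as Σ(N×S)/(T×M)×100 over grades 0-3 with higher meaning more damage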; details: Arabidopsis thaliana T1 plants; for Grade 0 (classification and statistics of the grade of pesticide damage; number of plants) / Grade 1 (classification and statistics of the grade of pesticide damage; number of plants) / Grade 2 (classification and statistics of the grade of pesticide damage; number of plants) / Grade 3 (classification and statistics of the grade of pesticide damage; number of plants): 16 plants
Method in brief: as §1

[3] = test system: Arabidopsis thaliana T1 plants; experiment: Isoxaflutole tolerance of transgenic Arabidopsis thaliana T1 plants (spray, bleached leaf area grade, damage score); parameters: Scores (pesticide damage): scale not given here; details: spray, Arabidopsis thaliana T1 plants; for Classification and statistics of the grade of pesticide damage: Grade 0 (number of plants) / Classification and statistics of the grade of pesticide damage: Grade 1 (number of plants) / Classification and statistics of the grade of pesticide damage: Grade 2 (number of plants) / Classification and statistics of the grade of pesticide damage: Grade 3 (number of plants): 16 plants
Method in brief: as §1

[4] = isoxaflutole 35 g ai/ha (0.5x field concentration)
[5] = isoxaflutole 70 g ai/ha (1x field concentration)

Molecule | Classification and statistics of the grade of pesticide damage: Grade 0 ([1]; topramezone 25 g ai/ha (1×)) | Classification and statistics of the grade of pesticide damage: Grade 1 ([1]; topramezone 25 g ai/ha (1×)) | Classification and statistics of the grade of pesticide damage: Grade 2 ([1]; topramezone 25 g ai/ha (1×)) | Classification and statistics of the grade of pesticide damage: Grade 3 ([1]; topramezone 25 g ai/ha (1×)) | Classification and statistics of the grade of pesticide damage: Grade 0 ([1]; topramezone 100 g ai/ha (4×)) | Classification and statistics of the grade of pesticide damage: Grade 1 ([1]; topramezone 100 g ai/ha (4×)) | Classification and statistics of the grade of pesticide damage: Grade 2 ([1]; topramezone 100 g ai/ha (4×)) | Classification and statistics of the grade of pesticide damage: Grade 3 ([1]; topramezone 100 g ai/ha (4×)) | Scores ([1]; topramezone 25 g ai/ha (1×)) | Scores ([1]; topramezone 100 g ai/ha (4×)) | Resistance evaluation ([1]; topramezone 25 g ai/ha (1×)) | Resistance evaluation ([1]; topramezone 100 g ai/ha (4×)) | Resistance evaluation ([2]; mesotrione 52.5 g ai/ha) | Scores ([2]; mesotrione 52.5 g ai/ha) | Grade 0 (classification and statistics of the grade of pesticide damage; number of plants) ([2]; mesotrione 52.5 g ai/ha) | Grade 1 (classification and statistics of the grade of pesticide damage; number of plants) ([2]; mesotrione 52.5 g ai/ha) | Grade 2 (classification and statistics of the grade of pesticide damage; number of plants) ([2]; mesotrione 52.5 g ai/ha) | Grade 3 (classification and statistics of the grade of pesticide damage; number of plants) ([2]; mesotrione 52.5 g ai/ha) | Resistance evaluation ([2]; mesotrione 105 g ai/ha) | Scores ([2]; mesotrione 105 g ai/ha) | other results
NtHPPDm-F372A-02: nucleotide sequence encoding Nicotiana tabacum HPPD with F372A; vector DBN11751 (nucleic acid, NtHPPDm-F372A-02 Nucleotide Sequence, vector DBN11751) DNA: ATGGGGAAGCTGGAAACCGTCACTACCACCTCGGCGGCGGCTGCTGATGATTCATCGGAATTAACAACCAACTTCAAGTTGGTTGGTTTCAAAAATTTCATCAGAACAAACCCAAGGTCTGATTTCTTCTCCGTCAAGAGCTTCCACCACATTGAATTCTGGTGCGGTGACGCAACTAACACAGCGCGCCGCTTCTCATGGAGCCTAGGGATGCCAATTGCAGCTAAGAGTGATCTTTCAACAGGAAACAGCGTGCACGCCTCCTACCTCCTCCGGCCCGTAAGCGGTTCTTTACAGTTCCTGTTTACAGCACCATATTCACCTTCTATTTCGACTCCTAGTTCAGCTGCAATCCCATCTTTTTCCACATCTACACATAGGTCTTTCACTACAACACATGGACTGGGTGTTCGTGCCGTCGCCCTCGAGGTGGAGAATGCTTATACTGCCTTCAGTGCTTCTGTCTCCAGAGGCGCCAAGCCAATGTTTGAACCTGTGACAATTGATGAACAAGTAGCAATGGCTGAGGTTCATTTGTACGGCGATGTTGTGCTGCGATTTGTTTCTTATCTCAAGGACGCCGACAACCTGGTCTTCCTGCCGGGGTTTGAGGCCATGGATGAAACTGCTAGTTACAAAGAACTTGATTATGGAATACGGCGTTTGGATCATGCTGTGGGCAATGTTCCAGAACTCGGCCCGGTAGTTGATTACATCAAGAGGTTTACTGGATTTCATGAATTTGCAGAGTTTACCGCTGAAGATGTGGGAACTGCGGAAAGTGGGCTAAACTCCATGGTTCTTGCGAACAATGATGAGACTGTGCTCCTCCCTCTGAATGAGCCTGTTTATGGCACCAAAAGAAAATCTCAGATACAAACATATCTTGAGCATAATGAAGGAGCTGGGGTGCAGCACCTTGCTCTTGTTACTGAAGACATCTTTAAGACTTTGACAGAGATGAGGAAGAGAAGTGGAGTTGGAGGTTTTGAGTTCATGCCTTCCCCCCCGCCGACCTACTACAAGAATTTGAAGAACAGGGCTGGTGACGTCCTCTCAGACGAGCAGATTTTGGCTTGTGAGGAGCTTGGCATCTTGGTAGACCGGGACGACCAGGGGACGCTTCTCCAAATTGCCACAAAACCCGTCGGGGACCGCCCCACCATATTTATTGAGATCATCCAGAGGATAGGCTGCATGCTTAAAGATGGAAAAGGTCAAGTGTACCAGAAGGGTGGTTGTGGTGGGTTTGGCAAAGGAAATTTTTCTGAGCTGTTCAGAAGCATAGAAGAATATGAGAAGACACTGGAAGCAAAACAAGCAAATCAAGTTGCGGCCGCGTGA | 0 | 6 | 10 | 0 | 0 | 0 | 0 | 16 | 54 | 100 | poorly | non-resistant (non-resistant plants (scores 68-100)) | Poorly resistant | 65 | 0 | 2 | 13 | 1 | Non-resistant | 100 | Grade 0 (classification and statistics of the grade of pesticide damage; number of plants) ([2]; mesotrione 105 g ai/ha): 0; Grade 1 (classification and statistics of the grade of pesticide damage; number of plants) ([2]; mesotrione 105 g ai/ha): 0; Grade 2 (classification and statistics of the grade of pesticide damage; number of plants) ([2]; mesotrione 105 g ai/ha): 0; Grade 3 (classification and statistics of the grade of pesticide damage; number of plants) ([2]; mesotrione 105 g ai/ha): 16; Resistance evaluation [3, 4]: Poorly; Scores (pesticide damage) [3, 4]: 54; Classification and statistics of the grade of pesticide damage: Grade 0 (number of plants) [3, 4]: 0; Classification and statistics of the grade of pesticide damage: Grade 1 (number of plants) [3, 4]: 6; Classification and statistics of the grade of pesticide damage: Grade 2 (number of plants) [3, 4]: 10; Classification and statistics of the grade of pesticide damage: Grade 3 (number of plants) [3, 4]: 0; Resistance evaluation [3, 5]: Non-resistant; Scores (pesticide damage) [3, 5]: 100; Classification and statistics of the grade of pesticide damage: Grade 0 (number of plants) [3, 5]: 0; Classification and statistics of the grade of pesticide damage: Grade 1 (number of plants) [3, 5]: 0; Classification and statistics of the grade of pesticide damage: Grade 2 (number of plants) [3, 5]: 0; Classification and statistics of the grade of pesticide damage: Grade 3 (number of plants) [3, 5]: 16
NtHPPDm-F383W-02: nucleotide sequence encoding Nicotiana tabacum HPPD with F383W; vector DBN11752 (nucleic acid, NtHPPDm-F383W-02 Nucleotide Sequence, vector DBN11752) DNA: ATGGGGAAGCTGGAAACCGTCACTACCACCTCGGCGGCGGCTGCTGATGATTCATCGGAATTAACAACCAACTTCAAGTTGGTTGGTTTCAAAAATTTCATCAGAACAAACCCAAGGTCTGATTTCTTCTCCGTCAAGAGCTTCCACCACATTGAATTCTGGTGCGGTGACGCAACTAACACAGCGCGCCGCTTCTCATGGAGCCTAGGGATGCCAATTGCAGCTAAGAGTGATCTTTCAACAGGAAACAGCGTGCACGCCTCCTACCTCCTCCGGCCCGTAAGCGGTTCTTTACAGTTCCTGTTTACAGCACCATATTCACCTTCTATTTCGACTCCTAGTTCAGCTGCAATCCCATCTTTTTCCACATCTACACATAGGTCTTTCACTACAACACATGGACTGGGTGTTCGTGCCGTCGCCCTCGAGGTGGAGAATGCTTATACTGCCTTCAGTGCTTCTGTCTCCAGAGGCGCCAAGCCAATGTTTGAACCTGTGACAATTGATGAACAAGTAGCAATGGCTGAGGTTCATTTGTACGGCGATGTTGTGCTGCGATTTGTTTCTTATCTCAAGGACGCCGACAACCTGGTCTTCCTGCCGGGGTTTGAGGCCATGGATGAAACTGCTAGTTACAAAGAACTTGATTATGGAATACGGCGTTTGGATCATGCTGTGGGCAATGTTCCAGAACTCGGCCCGGTAGTTGATTACATCAAGAGGTTTACTGGATTTCATGAATTTGCAGAGTTTACCGCTGAAGATGTGGGAACTGCGGAAAGTGGGCTAAACTCCATGGTTCTTGCGAACAATGATGAGACTGTGCTCCTCCCTCTGAATGAGCCTGTTTATGGCACCAAAAGAAAATCTCAGATACAAACATATCTTGAGCATAATGAAGGAGCTGGGGTGCAGCACCTTGCTCTTGTTACTGAAGACATCTTTAAGACTTTGACAGAGATGAGGAAGAGAAGTGGAGTTGGAGGTTTTGAGTTCATGCCTTCCCCCCCGCCGACCTACTACAAGAATTTGAAGAACAGGGCTGGTGACGTCCTCTCAGACGAGCAGATTTTGGCTTGTGAGGAGCTTGGCATCTTGGTAGACCGGGACGACCAGGGGACGCTTCTCCAAATTTTCACAAAACCCGTCGGGGACCGCCCCACCATATGGATTGAGATCATCCAGAGGATAGGCTGCATGCTTAAAGATGGAAAAGGTCAAGTGTACCAGAAGGGTGGTTGTGGTGGGTTTGGCAAAGGAAATTTTTCTGAGCTGTTCAGAAGCATAGAAGAATATGAGAAGACACTGGAAGCAAAACAAGCAAATCAAGTTGCGGCCGCGTGA | 0 | 0 | 10 | 6 | 0 | 0 | 0 | 16 | 79 | 100 | non-resistant (non-resistant plants (scores 68-100)) | non-resistant (non-resistant plants (scores 68-100)) | Non-resistant | 100 | 0 | 0 | 0 | 16 | Non-resistant | 100 | Grade 0 (classification and statistics of the grade of pesticide damage; number of plants) ([2]; mesotrione 105 g ai/ha): 0; Grade 1 (classification and statistics of the grade of pesticide damage; number of plants) ([2]; mesotrione 105 g ai/ha): 0; Grade 2 (classification and statistics of the grade of pesticide damage; number of plants) ([2]; mesotrione 105 g ai/ha): 0; Grade 3 (classification and statistics of the grade of pesticide damage; number of plants) ([2]; mesotrione 105 g ai/ha): 16; Resistance evaluation [3, 4]: Non-resistant; Scores (pesticide damage) [3, 4]: 88; Classification and statistics of the grade of pesticide damage: Grade 0 (number of plants) [3, 4]: 0; Classification and statistics of the grade of pesticide damage: Grade 1 (number of plants) [3, 4]: 0; Classification and statistics of the grade of pesticide damage: Grade 2 (number of plants) [3, 4]: 6; Classification and statistics of the grade of pesticide damage: Grade 3 (number of plants) [3, 4]: 10; Resistance evaluation [3, 5]: Non-resistant; Scores (pesticide damage) [3, 5]: 100; Classification and statistics of the grade of pesticide damage: Grade 0 (number of plants) [3, 5]: 0; Classification and statistics of the grade of pesticide damage: Grade 1 (number of plants) [3, 5]: 0; Classification and statistics of the grade of pesticide damage: Grade 2 (number of plants) [3, 5]: 0; Classification and statistics of the grade of pesticide damage: Grade 3 (number of plants) [3, 5]: 16
